The results in this text go back to US7018801.

As a reminder, the Kd is a measure of binding affinity in units of concentration.

The target of series [1] is GG (GST - ICS linker - GFP model substrate for ICE) [GST: P08515].
In series [2] the target is GM (GST - ICE-site linker - MBP model substrate for ICE) [GST: P08515].
For series [3], the target named is T1, ICS (14 mer epitope that is part of human pro-IL-1beta) (human).
T1 chain: NEAYVHDGPVRSLN
Nature of the series: method not stated; 'measured in a different context' from the protease experiment.

The target in series [4] is GG (GST - ICS linker - GFP model substrate for ICE) (human) [GST: P08515]. Description: cell-based or functional assay.
Series [5] has the same target.

GG (GST - ICS linker - GFP model substrate for ICE) [GST: P08515], sequence (P08515 whole entry, looked up): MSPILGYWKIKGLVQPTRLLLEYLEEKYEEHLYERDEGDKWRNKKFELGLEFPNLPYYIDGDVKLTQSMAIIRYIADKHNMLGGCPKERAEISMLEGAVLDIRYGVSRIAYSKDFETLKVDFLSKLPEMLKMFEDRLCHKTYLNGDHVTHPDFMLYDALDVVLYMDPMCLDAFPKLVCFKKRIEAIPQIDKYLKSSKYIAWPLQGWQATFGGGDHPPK
GM (GST - ICE-site linker - MBP model substrate for ICE) [GST: P08515], sequence (P08515 whole entry, looked up): as above

B1: interleukin converting enzyme (ICE) (protein)
chain: NPAMPTSSGSEGNVKLCSLEEAQRIWKQKSAEIYPIMDKSSRTRLALIICNEEFDSIPRRTGAEVDITGMTMLLQNLGYSVDVKKNLTASDMTTELEAFAHRPEHKTSDSTFLVFMSHGIREGICGKKHSEQVPDILQLNAIFNMLNTKNCPSLKDKPKVIIIQACRGDSPGVVWFKDSVGVSGNLSLPTTEEFEDDAIKKAHIEKDFIAFCSSTPDNVSWRHPTMGSVFIGRLIEHMQEYACSCDVEEIFRKVRFSFEQPDGRAQMPTTERVTLTRCFYLFPGH
As for B1, the “cleavage of substrate by purified ICE” value in series [1] is “Purified ICE cuts both the GG and GM substrates efficiently under these conditions”; in series [2], “Purified ICE cuts both the GG and GM substrates efficiently under these conditions”.

B2: LEPB (peptide)
chain: KARKEAELAAATAEQ
modifications: not checked
B2: the dissociation constant Kd in series [3] was 2000 nM.

B3: synthetic LEPB (peptide, from a related filing)
peptide: KARKEAELAAATAEQ
For the molecule B3, the IC50 of inhibition of the cleavage of GG by ICE in series [4] is 50 to 100 µM. The molecule further showed an IC50 (read off the curve), inhibition of ICE cleavage of GG in series [5] of 80 µM.
